The results in this text go back to the DeepSol protein solubility set.

The nature of the data set: soluble on expression in E. coli; label from the status in PepcDB or PDB records.
As for “MGSDKIHHHHHHKGHRVTGSDANVYPPMSTQLEEQGIELIQGFDPSQLGDAGSYPDIVVIGNAMSRGNPCVEAVLNLGIPYTSGPQFLVDHILPERWVLAVSGTHGKTSTSSMLAWILEDCGYQPGFLIGGVPQNFGVSARLGESAFFVVEADEYDSAFFDKRSKFVHYHPRTLVINNLEFDHADIFADLAAIQKQFHHQIRTVPGQGKVIWPADSHAVKQTIDMGCWSEQETYHSSEVTKGWHAKALSDDCHEFEVFFDGQSQGVLDWALIGQHNIENAVMAIAAARHVGVAPSAAIDALARFVPPKRRLELLDTVNGVSVYDDFAHHPTAIATTIKGMRAKVGQTKITIVLEPRSNTMKSGVHKDTLAHSMLQADEAFLYQADTIDWNMKEAMEAAVIPVTVLHQIDDVVAKVAASAKPGDTIVVMSNGGFGGLHKKLLAALAVSPQLVEQAH”, the “soluble on expression in E. coli” value is given as “not soluble”.
Take “MLMGMKPLRLCAILASIPPLAMVVRGRIRPKNSRKRFPTIVVLGTAQYDGVPSRQFAARLKWAAEQWHTQRSQKVVTVGGKLPEDRFTEAAVAREYLIKEHVDSDLIVAVEQGHDTRGSLRAALSELEQPILIITDPNHSLRAELIARSEGIAAWASSTPYCPTTFPRWQWWWTFVHEQGGLCVVLIELVAGKDVAQKVEDALRRLQAWLRPSRRARHEQLREERLEHHHHHH”: the “soluble on expression in E. coli” value is listed as “not soluble”.
Take “MYTHLTDMTNMLDTAKIGTSDGTFPLANAQNLQKAVEELQTGISKGMAGYFVLQYEIDNYCIAAEKAIAEFQDSYQQTLQPGTPAELKVFGIDGKGRIEFGSDPAYGGGNTFTVESWVKYDAGFFESGIGSFLSTFDGKQPNEGWMINFLGSNLRTTIGMGPQEGRVLEEGRAYPDNFGKWNHVVTVWDNTLPEGQLKMYVNGELFFSKTNDVKNDAGVLQNYMPNTRNQNMWAFQEPTDNSRCMTGFIKKFRMWSTAKSANEVKTLMNSDVTGTESGLVCAWDFTTVVEDVTNIPDKTGKHVAKIVGNYKWFKVEN”: the “soluble on expression in E. coli” value is “not soluble”.
As for “MAHHHHHHSLNDYTQQLQGKKDYLKTLFAGLDVPEWEVYESPDKHYRMRAEFRIWHEGGEMFYAMFEKGQKASGASMIRCDRFEAASEAVNRLMPELIAAAAQSPELKKRWYAVEFLSTLSGEMLVTMIYHKRLDAEWMQAAQALQQQLDISVIGRSRGQKIVLKQDYVTETLKVGNRDFRYRQIEGSFTQPNAAVCQKMLEWACRTAEGLGSDLLELYCGNGNFTLPLSRYFRQVLATEISKTSVSAAQWNIEANRIGNIKIARLSAEEFTEAYTGKREFKRLKDGGIALTDYAFSTIFVDPPRAGIDEETLKLVSQFDNIIYISCNPETLRANLDTLAETHAVERAALFDQFPFTHHIESGVLLKKKILEG”, the “soluble on expression in E. coli” value is given as “soluble”.
Take “MLFKTIFYQKLQKKVTTLFNLETERVIREIENLNKNNPKVIFQAPEGLKLKVEKEIEKIKQYFKQKNINIEIYLWGNTCFGACDLIDNHVKNLNVDLIIHYGHEKLSYANPEIKTLFIPAYHIFNKDEEEKILNDIKNFIEKHKSGGKKVAIATTIQYKKLLKDFNPSIILGCRGEVKEGDVILFVGTGRFHPLMIAYKYQKEVFIYNPLSKCFDKISEEEINKFIKKRILAISKLLLNKPKKVGVVLSTKKGQCRKRVFDEIIKLLEENDVNYLPILVDNISPDILFYDVDCYIIVACPRIVLDDYILYKKPIYTPEEFKLFLKNSFKYKFDEIKEDDFLEHHHHHH”: the “soluble on expression in E. coli” value was “soluble”.
With “MTGERIEKVKINDEFAKSHFLTTQWRETKRQRHYKMPVTEQGLRERIESAIPQVYHIIVTDLSYGCGQSFDIVVVSDFFQGKSKLMRSRAVNKAVKEELQEIHAFSCKCYTEEEWSKIVV”, the “soluble on expression in E. coli” value is reported as “soluble”.
To “MAHHHHHHMCDTANEADGKKLNKKAKSISVVKFKDKEKKKFVSLSSKEETSVQDLPLGCPVCYVPLTVDFNLLNQVEEQDEEEMIVCKEETTYINKSFINRINTNEYRSSTKIEAVFEEVKNVIHTTDDKCLIFSQYCSMLDLIEYHLKKHNIICSKLLGYMPMVSRNNILYNFNEDKHLRVLLISLKAGGEGLNLQVANRIFIVDPWWNPAAELQAIQRAHRIGQTKTVYATRFIIENTVEEKIVQLQNKKQLVFDCTIGDSGNAMQKLTKEDLAFLFHA” belongs “not soluble”; to “MKVVELKNVKKIYPDGTIALKGVSLSVEEGEFLGVMGPSGSGKSTLLHLIGGLDKPSEGIVKVFGKEINHLDEDELAEMRKRKIAYVFQFYYLLEDFSVLENLTLIGELAGIKNPKKKALELLDFLRLSHRINHKPYQLSGGEQQRVAIGRALMVEPKLILADEPTGNLDSKEGFRIFELFKELNEKGITFVVATHNDSLKPFFGRIINLRDGEIVTQR”, “soluble”.
On to “MGSDKIHHHHHHMNIGLLEALDQLEEEKGISKEEVIPILEKALVSAYRKNFGNSKNVEVVIDRNTGNIKVYQLLEVVEEVEDPATQISLEEAKKIDPLAEVGSIVKKELNVKNFGRIAAQTAKQVLIQRIRELEKEKQFEKYSELKGTVTTAEVIRVMGEWADIRIGKLETRLPKKEWIPGEEIKAGDLVKVYIIDVVKTTKGPKILVSRRVPEFVIGLMKLEIPEVENGIVEIKAIAREPGVRTKVAVASNDPNVDPIGACIGEGGSRIAAILKELKGEKLDVLKWSDDPKQLIANALAPATVIEVEILDKENKAARVLVPPTQLSLAIGKGGQNARLAAKLTGWKIDIKPIMNL”, for which the “soluble on expression in E. coli” value is listed as “not soluble”.
In the case of “GPLGSDFPQHSQHVLEQLNQQRQLGLLCDCTFVVDGVHFKAHKAVLAACSEYFKMLFVDQKDVVHLDISNAAGLGQVLEFMYTAKLSLSPENVDDVLAVATFLQMQDIITACHALKSLA”, the “soluble on expression in E. coli” value is recorded as “soluble”.
Take “MVQRLISANASEIKRMSKEELFQSIKASEGRVILSENVVVHPSVAGDITCAEMSKAYGADMILLNVFDVNQPIVVAAYEGQYTAETCVPNDEVVHRLKELVGLPIGMNVEPVDENLDLASTRVSIEPGRKASAATFKKANELGLDFILLTGNPGTGVTNDLIAKNVALAKKHFDGIIIAGKMHSSGVDEPVVSLKSAEQFIEAGADIVLVPAVGTVWGIDDQQVKEVVDFAHSKGKLVMSAIGTSQESAQPEVIQAIGIRNKILGVDIQHIGDANMGLVGIENIKELSDAIRGKRHTVARMARSINR”: the “soluble on expression in E. coli” value is reported as “not soluble”.
In the case of “MAIDHYENFPVASLLLPRRLRGAVTDIYRFARAADDIADEGAAEDAERLRQLAAFRAELHRIGAEPGTLAVPASADLAPIFTPLAATIARHQLPITPFFDLLSAFEQDISVKRYESHDDLLDYCRRSANPVGRLMLHLYGAVDEANLRDADAICTGLQLVNFWQDVRIDWRKQRVYLPEEDLRRHGVSRDDLAACRLTPQWRELMAFEVQRTRALLHSGAALPRRLPGRIGLELRLVVQGGLRILQRIEDAGYDVFMNRPELGAKDWAVMLWRAFT”, the “soluble on expression in E. coli” value is given as “not soluble”.
“GQDRSPIETQNVETVLRLFDEGWGAQDGWRDVWRETMTPGFRSIFHSNQAVEGIEQAIAFNAVLFEGFPRLEVVVENVTVEGDNVVVQARLTGAQDGPFLGVPPSGQMVDVPDVTLFTLADGQVIEMRYFTDLLAVMTAISAPPEN”: the “soluble on expression in E. coli” value is listed as “soluble”.
With “MLGMTHFSQQDNFSVAARVLGALFYYAPESAEAAPLVAVLTSDGWETQWPLPEASLAPLVTAFQTQCEETHAQAWQRLFVGPWALPSPPWGSVWLDRESVLFGDSTLALRQWMREKGIQFEMKQNEPEDHFGSLLLMAAWLAENGRQTECEELLAWHLFPWSTRFLDVFIEKAEHPFYRALGELARLTLAQWQSQLLIPVAVKPLFR”, the “soluble on expression in E. coli” value is listed as “not soluble”.
For the sequence “RDHRKIGKQLDLYHMQEEAPGMVFWHNDGWTIFRELEVFVRSKLKEYQYQEVKGPFMMDRVLWEKTGHWDNYKDAMFTTSSENREYCIKPMNCPGHVQIFNQGLKSYRDLPLRMAEFGSCHRNEPSGSLHGLMRVRGFTQDDAHIFCTEEQIRDEVNGCIRLVYDMYSTFGFEKIVVKLSTRPEKRIGSDEMWDRAEADLAVALEENNIPFEYQLGEGAFYGPKIEFTLYDCLDRAWQCGTVQLDFSLPSRLSASYVGEDNERKVPVMIHRAILGSMERFIGILTEEFAGFFPTWLAPVQVVIMNITDSQSEYVNELTQKLSNAGIRVKADLRNEKIGFKIREHTLRRVPYMLVCGDKEVESGKVAVRTRRGKDLGSMDVNEVIEKLQQEIRSRSLKQLEE”, the “soluble on expression in E. coli” value is on record as “soluble”.
Turning to “MKEKTPFKNEKEFHDMVKKTKKGTFSGWYIVNPENNSVEFSGNFNRQFKLNKPVIPVNTEYVTRKEFNEYKDSNDQRLIKIETTLAAQGEQIRIQGEQIKELQIEQKAQSETLKLILQTLQKMSDRLDKMDVRLDKLESK”, the “soluble on expression in E. coli” value was “soluble”.
